Consider two molecules from paper PMC5737868.

Series [1] deals with FUS-P525L-NLUC-HA / NLUC-FUS-P525L-HA (full-length) (UniProt P35637 1-526, P525L). The series can be described thus: NanoBRET. For orientation: BRET reads energy transfer from a luciferase to a nearby fluorophore.
The target of a further series is FUS-NLUC-FLAG (UniProt P35637 1-526, P525L). The series can be described thus: NanoBRET.

B1: 2'-F PS-ASO ION-766637 (XNA)
DNA: CTGCTAGCCTCTGGATTTGA
modifications: full phosphorothioate, 2'-fluoro-modified gapmer (pattern not in the material)
The term Kd denotes the equilibrium constant for the complex coming apart. A high value points to a looser complex. In series [1], B1 showed a Kd of 2.2 ± 0.2 nM.

B2: PO-RNA JB-39 (ssRNA)
RNA: CUGCUAGCCUCUGGAUUUGA
In the series with FUS-NLUC-FLAG, B2 registered a Kd of 143 ± 38.2 nM.
